Residue numbers refer to the chain shown, from its start. Names may count otherwise.
B1: Hu149-11G1x (antibody)
heavy: EVQLVESGGGLVQPGGSLKLSCAASGFTFNTYAMNWVRQASGKGLEWVGRIRSKSNFYATAYAASVKGRFTISRDDSKNTAYLQMNSLKTEDTAVYYCTRGREYGSSYAMDYWGQGTLVTVSS
VL: DIVMTQSPLSLPVTPGEPASISCRSSKSLLHSNANTYLYWFLQKPGQSPQLLIYRMSNLASGVPDRFSGSGSGTDFTLKISRVEAEDVGVYYCMQHLEYPLTFGGGTKVELK
notes: Fc variant of Hu149-11; not shown: Fc variant 'G1x' is not defined in words
B2: Hu149-11G1m (antibody, human IgG1)
heavy: EVQLVESGGGLVQPGGSLKLSCAASGFTFNTYAMNWVRQASGKGLEWVGRIRSKSNFYATAYAASVKGRFTISRDDSKNTAYLQMNSLKTEDTAVYYCTRGREYGSSYAMDYWGQGTLVTVSSASTKGPSVFPLAPSSKSTSGGTAALGCLVKDYFPEPVTVSWNSGALTSGVHTFPAVLQSSGLYSLSSVVTVPSSSLGTQTYICNVNHKPSNTKVDKKVEPKSCDKTHTCPPCPAPELVGGPSVFLLPPKPKDTLMISRTPEVTCVVVDVSHEDPEVKFNWYVDGVEVHNAKTKPPEEQYNSTLRVVSVLTVLHQDWLNGKEYKCKVSNKALPAPIEKTISKAKGQPREPQVYTLPPSRDELTKNQVSLTCLVKGFYPSDIAVEWESNGQPENNYKTTPLVLDSDGSFFLYSKLTVDKSRWQQGNVFSCSVMHEALHNHYTQKSLSLSPGK
VL: B1 VL
B3: Hu149-12G1x (antibody)
heavy: B1 heavy with R102K
VL: B1 VL
notes: Fc variant of Hu149-12; not shown: Fc variant 'G1x' is not defined in words
B4: Hu149-12G1m (antibody, human IgG1)
heavy: B2 heavy with R102K
VL: B1 VL
notes: suffix G1m read as for Hu149-11G1m (L235V/F243L/R292P/Y300L/P396L)
B5: 149F2C10 (antibody, V domains shown)
VH: EVQLVESGGGLVQPKGSLKLSCAASGFTFNTYAMNWVRQAPGKGLEWVARIRSKSNFYATYYADSVKDRFTISRDDSQDMLYLQMNILKTEDTAIYYCVRGRDYGSSYAMDYWGQGTSVTVSS
VL: DIVMTQAAPSVPVTPGESVSISCRSSKSLLHSNGNTYLYWFLQRPGQSPQLLIYRMSNLASGVPDRFSGSGSGTAFTLRISRVEAEDVGVYYCMQHLEYPLTFGAGTKLELK
notes: also called 1491F2C0
B6: 499B1A5 (antibody, V domains shown)
VH: B5 VH with F57N, D79S, I87N, I95M, G101H, R102G, D103R, Y104S, S106Y, S107L
VL: DIVMTQAAFSNPVTLGTSASISCRSSKSLLHSNGITYLYWYLQKPGQSPQLLIYQMSNLASGVPDRFSSSGSGTDFTLRISRVEAEDVGVYYCAQSLELPLTFGAGTKLELK
notes: Murine hybridoma antibody (supernatant)
B7: 160D1E3 (antibody, V domains shown)
VH: B5 VH with F57Y, I87N
VL: B5 VL
notes: Murine hybridoma antibody
B8: Hu348-1 (antibody, V domains shown)
VH: EVQLVESGGGLVQPGGSLKLSCATSGFSFSNYRMHWLRQASGKGLEWVGVITVKSDNYGANYAASVKGRFTISRDDSKSSVYLQMNSLKTEDTAVYYCSSLGRVAYWGQGTLVTVSS
VL: DIQMTQSPSSVSASVGDRVTITCKASQNVDTNVVWYQQKPGQSPKALIYSASSRYSGVPDRFSGSGSGTDFTLTISSLQPEDFATYYCQQHNSFPLTFGQGTKLEIK
notes: humanized IgG
B9: Hu348-8 (antibody, V domains shown)
VH: B8 VH with S79N, S80T, V81A
VL: B8 VL
notes: humanized IgG
B10: Hu348-5 (antibody, V domains shown)
VH: B8 VH with T24A, R33A
VL: B8 VL
notes: humanized IgG
B11: Hu348-6 (antibody, V domains shown)
VH: B8 VH with L37V
VL: B8 VL
notes: humanized IgG
B12: Hu348-7 (antibody, V domains shown)
VH: B8 VH with V50R, A60T, N61A
VL: B8 VL
notes: humanized IgG
B13: Hu348-9 (antibody, V domains shown)
VH: B8 VH with S99T
VL: B8 VL
notes: humanized IgG
B14: Hu348-3 (antibody, V domains shown)
VH: B8 VH
VL: B8 VL with A46L
notes: humanized IgG
B15: Hu348-2 (antibody, V domains shown)
VH: B8 VH
VL: B8 VL with Q42K, S43A
notes: humanized IgG

target: T1, cynomolgus CCR8 (cynomolgus, UniProt G7NYJ2 1-355); test: FACS on HEK293-cynomolgus CCR8 cells
T1 construct: whole, on cells
T1 sequence (G7NYJ2 entry or part of it): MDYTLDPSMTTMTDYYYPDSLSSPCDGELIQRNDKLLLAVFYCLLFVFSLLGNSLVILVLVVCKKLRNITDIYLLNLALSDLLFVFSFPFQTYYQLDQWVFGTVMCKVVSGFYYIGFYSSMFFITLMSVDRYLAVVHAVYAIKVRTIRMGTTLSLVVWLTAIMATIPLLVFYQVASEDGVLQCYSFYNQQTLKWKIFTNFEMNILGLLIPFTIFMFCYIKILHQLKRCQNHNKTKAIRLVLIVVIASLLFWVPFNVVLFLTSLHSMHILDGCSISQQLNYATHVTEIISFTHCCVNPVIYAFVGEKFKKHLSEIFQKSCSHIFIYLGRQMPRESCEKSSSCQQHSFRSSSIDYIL

| EC50 [nM] | Max MFI [MFI] | Binder |
| --- | --- | --- |
| 0.24 | 4.52e+06 | B1 |
| 0.217 | 4.34e+06 | B2 |
| 0.15 | 3.65e+06 | B3 |
| 0.183 | 3.24e+06 | B4 |

target: T2, cynomolgus CCR8 (cynomolgus, UniProt G7NYJ2 1-355); test: FACS, hybridoma supernatant on cynomolgus CCR8 cells
T2 construct: whole, on cells; also called HEK293-Cynomolgus CCR8; ExpiCHO-S cynomolgus CCR8
Protocol: (§1) Binding of hybridoma supernatant on CHO-K1-human CCR8 and ExpiCHO-S cynomolgus CCR8 cells. A total of 660 96-well plates were seeded and screened by FACS binding from the hybridoma derived from immunized animals.
(§2) To obtain antibodies cross-reactive to human and cynomolgus CCR8, hybridomas from mice immunized with human and cynomolgus CCR8 DNAs were screened by FACS. Briefly, 50 μL ExpiCHO-S cells transfected with human CCR8 or cynomolgus CCR8 (cell density: 2×10⁶ cells/mL, viability>90%) were incubated with equal volume hybridoma supernatant in 96 well plate (Corning) at 4° C. for 1 hour. […] Finally, the mixture was washed and resuspended with FACS buffer, and subjected to FACS analysis on BD FACS Celesta.
T2 sequence (G7NYJ2 entry or part of it): as above

| Binding Ratio (GFP + MFI)/(GFP - MFI) | Binder |
| --- | --- |
| 98.2 | B5 |
| 35.1 | B6 |
| 92.2 | B7 |

target: T3, human CCR8 (human, UniProt P51685 1-355); test: FACS, competition with CCL1 on CHO-K1-human CCR8 cells
T3 construct: whole, on cells; also called hCCR8
T3 sequence (P51685 whole entry, the tested form may be a part): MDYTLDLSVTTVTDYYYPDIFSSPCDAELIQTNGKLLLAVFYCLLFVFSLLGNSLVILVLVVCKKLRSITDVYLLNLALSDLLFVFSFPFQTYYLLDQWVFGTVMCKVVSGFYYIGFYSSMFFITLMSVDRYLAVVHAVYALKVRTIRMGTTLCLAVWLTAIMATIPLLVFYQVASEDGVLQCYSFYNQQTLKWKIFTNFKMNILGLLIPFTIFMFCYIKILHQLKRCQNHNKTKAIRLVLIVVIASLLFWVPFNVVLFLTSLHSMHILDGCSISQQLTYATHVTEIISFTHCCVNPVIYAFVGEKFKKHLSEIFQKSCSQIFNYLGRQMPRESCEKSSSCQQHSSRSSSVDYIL

| IC50 [nM] | Max Inhibition (%) | Binder |
| --- | --- | --- |
| 0.247 | 99.3 | B1 |
| 0.231 | 99.4 | B2 |
| 0.17 | 100 | B3 |
| 0.146 | 99.6 | B4 |

target: T3, human CCR8; test: FACS, competition with AF647-human CCL1 on CHO-K1-human CCR8 cells

| IC50 [nM] | Max Inhibition (%) | Binder |
| --- | --- | --- |
| 0.23 | 94.1 | B8 |
| 0.358 | 88.4 | B9 |
|  | 1.39 | B10 |
| 1.84 | 78.3 | B11 |
|  | 25.6 | B12 |
| 0.333 | 88.2 | B13 |
| 0.362 | 83.1 | B14 |
| 0.216 | 92.4 | B15 |

target: T4, human CCR8 (human, UniProt P51685 1-355); test: FACS on HEK293-human CCR8 cells
T4 construct: whole, on cells; In the β-arrestin assay CCR8 is fused to the ProLink (PK) tag; also called hCCR8; CHO-K1-human CCR8
Protocol: (§3) The binding affinities of purified antibodies were determined on human CCR8 and cynomolgus CCR8 over-expressing cells. Briefly, CFSE (Life technology, Cat #: C34554) labeled CHO-K1-human CCR8 cells mixed with CHO-K1 cells, CFSE labeled HEK293-human CCR8 cells mixed with H1EK293 cells, or CFSE labeled H1EK293-cynomolgus CCR8 cells mixed with HTEK293 cells were used in the assay. The mix ratio was 1:1. A total of 5×10⁴ mixed cells for each well were seeded in 96-well plate and washed by FACS buffer (DPBS containing 10% FBS) once. Cells were incubated by series diluted purified hybridoma antibodies for 1 hour at 4° C. Antibodies were prepared with 3-fold serial dilution ranging from 200 nM to 0.003 nM in FACS buffer. After primary antibody incubation, cells were washed by FACS buffer for three times. Then, cells were stained with secondary antibody (Alexa Flu647-conj gated rabbit anti-mouse IgG, Jackson ImmunoResearch, #315606046) at 1:600 dilution in FACS buffer and incubated for 0.5 hour at 4° C. […] FlowJo software was used for analysis. Data was plotted as the logarithm of antibody concentration versus mean fluorescence signals. EC₅₀ values were calculated in GraphPad Prism 8 (GraphPad Software) using a log(agonist) vs. response-Variable slope (4 parameters) curve fit. […] The EC₅₀s of the selected antibodies on human CCR8 are less than 5 nM except those of 262C2G7 and 234G9C12. The EC₅₀s of the selected antibodies on cynomolgus CCR8 are less than 1 nM except that of 348E2D11 (Table 8).
T4 sequence (P51685 whole entry, the tested form may be a part): as above

| EC50 [nM] | Max MFI [MFI] | Binder |
| --- | --- | --- |
| 0.346 | 12000 | B5 |
| 0.278 | 11900 | B7 |

target: T1, cynomolgus CCR8; test: FACS on ExpiCHO-S-cynomolgus CCR8 cells

| Max MFI [MFI] | EC50 [nM] | Binder |
| --- | --- | --- |
| 336 |  | B8 |
| 267 |  | B9 |
| 6 |  | B10 |
| 82 | 31.1 | B11 |
| 174 |  | B12 |
| 148 |  | B13 |
| 350 |  | B14 |
| 296 |  | B15 |

target: T4, human CCR8; test: FACS on CHO-K1-human CCR8 cells
Protocol: as §3

| EC50 [nM] | Max MFI [MFI] | Binder |
| --- | --- | --- |
| 0.878 | 50700 | B5 |
| 0.456 | 51500 | B7 |

target: T3, human CCR8; test: FACS on CHO-K1-human CCR8 cells

| EC50 [nM] | Max MFI [MFI] | Binder |
| --- | --- | --- |
| 0.115 | 200000 | B1 |
| 0.112 | 193000 | B2 |
| 0.0927 | 195000 | B3 |
| 0.0668 | 183000 | B4 |

target: T2, cynomolgus CCR8; test: FACS on HEK293-Cynomolgus CCR8 cells
Protocol: as §3

| EC50 [nM] | Max MFI [MFI] | Binder |
| --- | --- | --- |
| 0.479 | 8830 | B5 |
| 0.422 | 8940 | B7 |

target: T3, human CCR8; test: FACS on HuT78 cells (endogenous human CCR8)

| EC50 [nM] | Max MFI [MFI] | Binder |
| --- | --- | --- |
| 0.427 | 52700 | B1 |
| 0.384 | 45700 | B2 |
| 0.313 | 52900 | B3 |
| 0.209 | 55600 | B4 |

target: T3, human CCR8; test: FACS on HEK293-human CCR8 cells

| EC50 [nM] | Max MFI [MFI] | Binder |
| --- | --- | --- |
| 0.122 | 5110 | B8 |
| 0.144 | 4730 | B9 |
|  | 163 | B10 |
| 0.978 | 1980 | B11 |
|  | 756 | B12 |
| 0.182 | 4500 | B13 |
| 0.108 | 4090 | B14 |
| 0.119 | 4740 | B15 |

target: T4, human CCR8; test: FACS, hybridoma supernatant on CHO-K1-human CCR8 cells
Protocol: as §1, §2

| Binding Ratio (GFP + MFI)/(GFP - MFI) | Binder |
| --- | --- |
| 170 | B5 |
| 34.4 | B6 |
| 168 | B7 |

target: T4, human CCR8; test: FACS competition, hybridoma supernatant with 4 nM AF647-human CCL1 on human CCR8 cells

| Inhibition Rate (%) | Binder |
| --- | --- |
| 99.2 | B5 |
| 95.1 | B6 |
| 99.1 | B7 |
